According to patent publication US20220144922A1 (Adimab, published 2022):
Changes are numbered by the printed parent chain.

B1: ADI-15557 (antibody, V domains shown)
VH: QVQLVQSGAEVKRPGSSVKVSCKASGGTFSSFAINWVRQAPGQGLEWMGGLIPIFGTPNNAQKFQGRVTITADESTSTAYMELSSLRSEDTAVYYCASLRYFDWQPGGSYWFDPWGQGTLVTVSS
VL: QPGLTQPPSVSVAPGKTARIACGGDNIGTKGVHWYQQKPGQAPVLVIYYDSDRPSGIPERFSGSNSGNTATLTISGVEAGDEADYYCQVWDTIDDHKDGLFGGGTKLTVL
notes: IgG
B2: ADI-15574 (antibody, V domains shown)
VH: QVQLVQSGGGLVKPGGSLRLSCAASGFTISGYNMFWVRQPPGKGLEWVSSITAGSSYLNYADSVKGRFIVSRDNAKNSLYLQMNSLRAEDTAVYFCARAPLLPAMMDLWGQGTTVTVSS
VL: QSVLTQPPSVSGAPGQRVTISCTGSSSNIGAGYDVHWYQQLPGTAPKLLIYTNNNRPSGVPDRFSGSKSGTSASLAITGLQAEDEADYYCQSYDRSLNGYVFGTGTKLTVL
notes: IgG; also called Antibody Number 144
B3: ADI-15635 (antibody, V domains shown)
VH: B2 VH with Q1E, V5L, Q6E
VL: B2 VL with L108V
notes: IgG; also called Antibody Number 200
B4: ADI-15648 (antibody, V domains shown)
VH: B2 VH with Q1E, Q6E
VL: B2 VL with L4V, K107T, L108V
notes: IgG; also called Antibody Number 212
B5: ADI-15597 (antibody, V domains shown)
VH: QVQLVQSGGGLVKPGGSLRLSCAGSGFTFSSYTLNWVRQAPGKGLEWVSSISSSSTYIYYADSVKGRFTISRDNAKNSLHLQMNSLRAEDTAVYYCARADYDRSVYHLNWFDPWGQGTLVTVSS
VL: QSVLTQPPSVSGAPGQRVTISCTGSSSNIGAGYDVHWYQQLPGAAPKLLIYGNTNRPSGVPDRFSGSKSGTSASLAITGLQADDEADYYCQSYDSSLSGTWVFGGGTKLTVL
notes: IgG
B6: ADI-15615 (antibody, V domains shown)
VH: B5 VH with Q1E, Q6E, S7T, F111L
VL: B5 VL with S2P
notes: IgG; also called Antibody Number 180
B7: ADI-15616 (antibody, V domains shown)
VH: QVQLVQSGGGLVKPGGSLRLSCAASGFTFSDHYMTWIRQAPGKGLEWVSYISSTSSFTNYADSVKGRFTISRDNAKKSLYLQMNSLRAEDTAVYYCARDRNWGYAYGSDYWGQGTLVTVSS
VL: DIRLTQSPDTLSLSPGERATLSCRASQSVSSTYLAWYQQKPGQAPRLLIYGAFGRATGIPDRFSGSGSGTDFTLTISRLEPEDFAVYYCQLYGNSRTFGQGTKLEIK
notes: IgG
B8: ADI-15559 (antibody, V domains shown)
VH: QVQLVQSGAEVKKPGSSVKVSCKASGGSLSTYGIHWVRQAPGQGLEWVGGVMTVYGKTTYGQNFQGRVTIAVDRSTNTAYMELSSLTSDDTGTYYCATDSYYVWTGSYPPPFDLWGQGTLVTVSS
VL: EIVLTQTPGTQSLSPGQSATLSCRASHSVGNDYLAWYQQKPGQSPRLLIHGAYRRDSGIPDRFIGSGSGTDFTLTIDSLEPDDCAVYYCQQYGSWPLTFGGGTKVDIK
notes: IgG; also called Antibody Number 130
B9: ADI-15618 (antibody, V domains shown)
VH: EVQLVETGGGLIQPGGSLRLSCVASGFSLRNYALGWLRQAPGKGLEWVSGGYYGDVYYTDSVKGRFAVSRDNSGDTVYLEMDNLRVEDTAVYYCARMETVTTDAGSGWDWYFEVWGRGTLVTVSS
VL: ETTLTQSPATLSLSPGDWATLSCRASQSVGTYLAWYQHKPGQAPRLLIHDASNRASDIPSRFSGSGSGTDFTLTIRGLEPEDFAVYYCQQHRDWRPVTFGGGTKVEIK
notes: IgG
B10: ADI-15620 (antibody, V domains shown)
VH: QVQLVQSGAEVKKPGASVKVSCKASGYTFTSYDINWVRQATGHGLEWMGWMSPNSGYTGYAQKFQGRVTMSRNTSTGTAYMELSSLRSEDTAVYYCAREARDLRVGATNFDYWGQGTLVTVSS
VL: QPVLTQPPSVSVSPGQTASITCSGDKLGDKYISWYQQRPGQSPVMVIYQDSKGPSGIPERFSGSNSGNTATLTISGTQAMDEADYYCQAWDSSIDVVFGGGTKLTVL
notes: IgG
B11: ADI-15621 (antibody, V domains shown)
VH: QVQLVQSGPEMKKPGSSVKVSCKPSGGTFSSYSVSWVRQAPGQGLEWMGGIIPIFGSSDYAQKFQGRLTITEDESTKTSYMQLNNLTSDDTAIYFCARDNYYVWTGHYPEFDFWGQGTLVTVSS
VL: ETTLTQSPGTLSLSLGETATLSCRASQSVRSDYLAWYQQKPGQAPRLLISGASNRATAIPERFTGSGSGTDFTLTISSLEPADFAVYYCQQYGSTPITFGQGTRLEIK
notes: IgG; also called Antibody Number 186
B12: ADI-15622 (antibody, V domains shown)
VH: QVQLQESGGGLVQPGGSLRLSCSASGFTFSNYGMSWVRQAPGKGLEWVSGIGVSDGSTHYADSVKGRFIISRDNSKNMLSLQMSSLGVDDTAVYYCARIVIVGVLRFQEWLSSDGMDVWGQGTTVTVSS
VL: DIVMTQTPSSVSASVGDRVTITCRASQAISGGLAWYQQKAGKAPKLLIYAASNLPSGVPSRFSGSGSGTDFTLTISSLQPEDFATYYCQQANSFPFTFGQGTRLEIK
notes: IgG; also called Antibody Number 187
B13: ADI-15624 (antibody, V domains shown)
VH: QVQLVQSGGGLVKAGGSLRLSCAASGFTISGFYMTWIRQAPGKGLEWVSSISGSSSYTNYADSVKGRFTISRDNAKNSLYLHMNSLRAEDTAVYYCARIRPDDSSGYPDYWGQGTLVTVSS
VL: B2 VL with Y38C, T52G, R95S, N98S, Y100F, L108V
notes: IgG; also called Antibody Number 189
B14: ADI-15625 (antibody, V domains shown)
VH: EVQLVESGAEVRKPGASVQVSCKASGYTFTSYYMHWVRQAPGHGLEWMGMIYPSGGSTSYAQKFQGRVTMTRDTSTSTVYMELSSLRSEDAAVYYCARDRAGCSGGSCYYYGMDVWGQGTTVTVSS
VL: NFMLTQPPSVSVSPGQTASITCSGNKLGDKYACWYQQKPGQSPVLVISQDSKRPSGIPERFSGSNSGNTATLTISGTQAMDEADYYCQAWDSRTVVFGGGTKLTVL
notes: IgG; also called Antibody Number 190
B15: ADI-15631 (antibody, V domains shown)
VH: QVQLVESGGGLVQPGRSLRLSCAASGFTFDNYPMHWIRQAPGKGLEWVSGISWHSGSIGYADSVKGRFTISRDNAKNSLYLQMNSLRTEDTALYYCAKDAHYFDNSGHYYYGLDVWGQGTTVTVSS
VL: EIVLTQSPATLSVSPGERATLSCRASQNIINNLAWYQQKPGQAPRLLISGASTRATGIPARFSGSGSGTEFTLTITSLQSEDFAVYYCQQYNNWPLTFGGGTKVDIK
notes: IgG
B16: ADI-15637 (antibody, V domains shown)
VH: QVQLVQSGAEVTKPGASVRVSCKFSAYTLSALSIHWVRQAPGKGLEWMGAFDPEDGEPIYSQHFQGRVTMTEDTSTQTAYMELNSLRSEDTAVYYCSSVGPAGWFDPWGQGTLVTVSS
VL: DIRLTQSPSSLSASVGDRVSITCRASQSISSYLHWYQQKPGKAPKLLIYAASSLQSGVPSRFSGSGSGSDFTLTISSLQPEDFATYYCHQSYIPPFTFGPGTKLEIK
notes: IgG; also called Antibody Number 202
B17: ADI-15638 (antibody, V domains shown)
VH: EVQLVESGGGLVKPGGSLRLSCAASGFTITSYGMNWVRQAPGKGLEWVSSISSSSSFIHYGDSVKGRFTISRDNAKNSLYLQMNSLRAGDTAVYYCVRDSGHQDYRGDYWGQGTLVTVSS
VL: B2 VL with L4V, T19S, T78N, N98S, Y100W, T104G
notes: IgG
B18: ADI-15558 (antibody, V domains shown)
VH: QVQLVQSGGEVKKPGASVKVSCKASGYTFTTYGISWVRQAPGHGLEWLGWISPKNGNTKYAQKVQGRVTMTIDPTTSTAYMELRSLRSDDTAMYYCARDYIVAIVAALPHGMDVWGQGTLVTVSS
VL: QSVLTQPPSLSVSPGQTASISCSGDQLGNKYVCWYQQKPGQSPVLVIYQDSRRPSGVPERFSGSNSGNTATLTVGGTQPMDEADYYCQAWDSSIRVFGGGTKVTVL
notes: IgG
B19: ADI-15595 (antibody, V domains shown)
VH: EVQLVESGPTLVKPTQTLTLTCTFSGFSLTTIGVGVGWIRQPPGKALEFLGIVYWDDDKRYSPSLKSRLTITKDTSKNQVVLTMTTLAPEDTGTYYCTYARYSSALFGGYYFHSWGQGTLVTVSS
VL: QSVLTQPPSVSVAPGQTAKITCGGNDIGSRSVHWYQQKPGQAPVLVVYDNSDRPSGIPERFSGSNSGDTATLTISRVEAGDEAVYYCQVWESSGDHPRIFGGGTKLTVL
B20: ADI-15607 (antibody, V domains shown)
VH: QVQLVQSGGGLVQPGGSLRLSCAASRFTFSSYAMSWVRQAPGKGLEWVSTISGSGISTYYADSVKGRFTISRDNSKNTLYLQMNSLSAEDTAVYYCAKELREYYYDSSGFDYWGQGTLVTVSS
VL: QPVLTQSRSVSGSPEQSVTISCTGTSSDVGGYNYVSWYQQHPGKAPKLMIYDVSKRPSGVPDRFSGSKSGNTASLTISGLQAEDESDYYCCSYAGTYTYVFGTGTKVTVL

These binders were tested against T1, prefusion-stabilized RSV F ectodomain (DS-Cav1), subtype B (respiratory syncytial virus subtype B) (assay: BLI, IgG on sensor).
T1 construct: extracellular domain; also called Prefusion subtype B
Experimental: IgG binding to DS-Cav1 and FA FP was determined by BLI measurements using a FortéBio Octet HTX instrument (Pall Life Sciences). […] Data was analyzed using the ForteBio Data Analysis Software 7. The data was fit to a 1:1 binding model to calculate an association and dissociation rate, and KD was calculated using the ratio kd/kₐ.

| Binder | Kd [nM] |
| --- | --- |
| B1 | 0.61 |
| B2 | 0.46 |
| B3 | 0.431 |
| B4 | 0.438 |
| B5 | 6.09 |
| B6 | 11.6 |
| B7 | 1.74 |
| B8 | 0.98 |
| B9 | 0.535 |
| B10 | 1.4 |
| B11 | 0.555 |
| B12 | 1.51 |
| B13 | 0.407 |
| B14 | 2.61 |
| B15 | 0.552 |
| B16 | 6.13 |
| B17 | 0.402 |
| B18 | 0.94 |

What follows are binders tested against RSV F protein of subtype A strain A2, on virus (respiratory syncytial virus subtype A …, UniProt P03420 26-574) (assay: cell-based or functional assay).

| Binder | Neut IC50 (ug/ml) subtype A [µg/mL] |
| --- | --- |
| B1 | 0.041 |
| B2 | 0.176 |
| B3 | 0.115 |
| B4 | 0.064 |
| B5 | 0.163 |
| B6 | 0.977 |
| B7 | 4.52 |
| B8 | 0.008 |
| B9 | 0.003 |
| B10 | 0.077 |
| B11 | 0.018 |
| B12 | 0.544 |
| B13 | 0.051 |
| B14 | 0.239 |
| B15 | 0.099 |
| B16 | 0.357 |
| B17 | 0.178 |
| B19 | 0.02 |
| B20 | > 10 |

Each binder was assayed against RSV F protein of subtype B strain 18537, on virus (respiratory syncytial virus subtype B …, UniProt P13843 26-574) (assay: cell-based or functional assay).

| Binder | Neut IC50 (ug/ml) subtype B [µg/mL] |
| --- | --- |
| B1 | 0.028 |
| B2 | 0.226 |
| B3 | 0.226 |
| B4 | 0.145 |
| B5 | 1.79 |
| B6 | 1.68 |
| B7 | 5.58 |
| B8 | 0.006 |
| B10 | 0.053 |
| B11 | 0.021 |
| B12 | 1.37 |
| B13 | 0.033 |
| B14 | 1.2 |
| B15 | 0.207 |
| B16 | 1.05 |
| B17 | > 10 |
| B19 | 0.17 |
| B20 | > 10 |
